Reference: article PMC7987339

Molecular target: Hfq (Escherichia coli) (UniProt P0A6X3)
Experiment: competition
Details: 10 nM (so in the source) Tris-HCl pH 8.0, 1 mM DTT, 1 mM MgCl2, 20 mM KCl, 10 mM Na phosphate pH 8.0, 12.5 ug/mL yeast tRNA; 15 min at 37 C; native 5% PAGE in 1X TBE …

Sequence of Hfq (Escherichia coli) (P0A6X3 whole entry): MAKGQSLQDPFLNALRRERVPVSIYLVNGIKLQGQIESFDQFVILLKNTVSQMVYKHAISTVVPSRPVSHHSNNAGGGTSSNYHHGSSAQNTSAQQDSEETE

GGACACCGUCGCUUAAAGUGACGGCAUAAUAAUAAAAAAAUGAAAUUCCUCUUUGACGGGCCAAUAGCGAUAUUGGCCAUUUUUUU [ChiX sRNA]
binding: binds
